Assay results reported in patent publication US20240254229A1 (Molecular Partners, published 2024).
Blank lines part the entries; values can stand above or below the binder they belong to.

What was measured:
[1] = target: T1, hCD33 (recombinant, construct not stated) (human, UniProt P20138 18-259, limits assumed); experiment: switchSENSE, hCD33 and hCD123 co-immobilised 2:1; panel headed CD33, column KD1; KD2 printed N.A.
T1 construct: also called CD33 (Ligand 1)
Procedure: (§1) The designed ankyrin repeat proteins: DARPin® protein #20, DARPin® protein #21, DARPin® protein #22, DARPin® protein #27, DARPin® protein #40 and DARPin® protein #41 were tested in a concentration of 0.16 and 64 nM (in a buffer PE140 containing 10 mM Na2HPO4/NaH2PO4, 140 mM NaCl, 0.05% Tween20, 50 μM EDTA, 50 μM EGTA) for binding against two ligands hCD33 and hCD123, which both were immobilized simultaneously to DNA nanolevers, on the surface, at a pre-defined ratio (2:1, CD33:CD123) and 10% density (100:50) on an ADP-48-1-0 chip, where 100% density 1000 receptors/μm2 (preincubated R1-B48-CD123 and G1-A48-CD33 (100 nM) diluted in cNL-48 (dark)). Briefly the following steps were performed: [0724] Conjugation. Amine coupling of the two ligands (CD33 and CD123) to the DNA nanolever (A48, B48, respectively) and purification of the conjugates using the proFIRE® solution (Dynamic Biosensors GmbH) at 25° C. [0725] Evaluation of all the combined affinity and avidity of all different proteins to both ligands attached on the surface of an ADP chip using a DRX+ instrument (dynamic BIOSENSORS). [0726] Statistical analysis (repeatability from 2 to 5 times) including regeneration of the chip surface every concentration analyzed and long dissociation times and data were fitted using a bi-exponential global fit.

[2] = target: T1, hCD33 (recombinant, construct not …); experiment: switchSENSE, CD33 and CD123 on one chip; monophasic
Procedure: as §1

[3] = target: T2, hCD123 (recombinant, construct not stated) (human, UniProt P26951 19-305, limits assumed); experiment: switchSENSE, hCD33 and hCD123 co-immobilised 2:1; panel headed CD123, y axis kon
T2 construct: also called CD123 (Ligand 2)
T2 sequence (looked up): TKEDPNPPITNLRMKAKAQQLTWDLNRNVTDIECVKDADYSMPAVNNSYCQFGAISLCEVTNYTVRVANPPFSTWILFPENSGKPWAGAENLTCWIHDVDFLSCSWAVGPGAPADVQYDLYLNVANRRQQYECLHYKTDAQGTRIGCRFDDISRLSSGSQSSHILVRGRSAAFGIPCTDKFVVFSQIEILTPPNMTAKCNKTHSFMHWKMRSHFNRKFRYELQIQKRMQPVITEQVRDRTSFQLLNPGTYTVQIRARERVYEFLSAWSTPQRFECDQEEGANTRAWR
Procedure: as §1

[4] = target: T3, extracellular domain of human CD70 (SEQ ID NO: 89), hCD70-Fc-trimer, ACRO Biosystems (human, UniProt P32970 52-193, chemically biotinylated where the biotinylated form was used); experiment: SPR (ProteOn XPR36), target on GLC chip
T3 construct: also called human CD70-Fc-trimer; Bio.CD70
T3 sequence: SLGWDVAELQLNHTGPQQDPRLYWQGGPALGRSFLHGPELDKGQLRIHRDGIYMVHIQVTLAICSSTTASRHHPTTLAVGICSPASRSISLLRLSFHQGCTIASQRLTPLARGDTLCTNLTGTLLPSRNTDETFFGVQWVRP

[5] = target: T4, biotinylated extracellular domain of human CD33 (SEQ ID NO: 87), Fc and Avi tagged (human, UniProt P20138 18-259, biotinylated with BirA-GST (Avi tag)); experiment: SPR (ProteOn XPR36), target on GLC chip
T4 construct: also called hCD33; human target hCD33

human serum albumin = target: T5, human serum albumin (human, UniProt P02768 25-609); experiment: SPR (ProteOn XPR36), target on GLC chip
T5 construct: also called HSA; SA

[6] = target: T6, biotinylated extracellular domain of human CD123 (SEQ ID NO: 88), Fc and Avi tagged (human, UniProt P26951 19-303, biotinylated with BirA-GST (Avi tag)); experiment: SPR (ProteOn XPR36), target on GLC chip, DARPin as analyte
T6 construct: also called hCD123
T6 sequence: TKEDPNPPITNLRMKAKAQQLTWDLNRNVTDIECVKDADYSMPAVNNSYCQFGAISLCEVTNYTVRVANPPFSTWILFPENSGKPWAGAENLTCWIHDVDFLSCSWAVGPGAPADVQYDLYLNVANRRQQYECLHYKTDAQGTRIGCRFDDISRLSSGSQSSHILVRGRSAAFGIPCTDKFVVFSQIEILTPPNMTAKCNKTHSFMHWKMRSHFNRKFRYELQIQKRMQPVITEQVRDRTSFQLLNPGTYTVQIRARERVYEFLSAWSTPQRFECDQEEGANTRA

[7] = target: T6, biotinylated extracellular domain of …; experiment: SPR (ProteOn XPR36), target on GLC chip
[8] = target: T3, extracellular domain of human CD70 (SEQ …); experiment: SPR (ProteOn XPR36), target on GLC chip, DARPin as analyte
[9] = target: T4, biotinylated extracellular domain of …; experiment: crude extract HTRF, 12 nM biotinylated hCD33
Procedure: The extract of each lysed clone was applied as a 1:900 dilution (final concentration) in PBSTB (PBS supplemented with 0.1% Tween 20® and 0.2% (w/v) BSA, pH 7.4) together with 12 nM (final concentration) biotinylated hCD33, 1:200 (final concentration) of anti-strep-D2 HTRF antibody-FRET acceptor conjugate (Cisbio) and 1:200 (final concentration) of anti-6His-Tb antibody FRET donor conjugate (Cisbio) to a well of 384 well plate and incubated for 90 minutes at RT. The HTRF was read-out on a Tecan M1000 using a 340 nm excitation wavelength and a 665±10 nm emission filter. […] An amino acid sequence of a selected ankyrin repeat domain that specifically bind to hCD33 are provided in SEQ ID NO: 15.

[10] = target: T7, human scCD3εγ (scCD3εγ_Avi-Bio) (human, biotin on the C-terminal Avi-tag (in vitro, BirA) where the biotinylated form was used); experiment: ribosome display selection, crude extract HTRF
T7 construct: Used for all SPR and HTRF results on human CD3; also called recombinant human CD3; human CD3
T7 chain: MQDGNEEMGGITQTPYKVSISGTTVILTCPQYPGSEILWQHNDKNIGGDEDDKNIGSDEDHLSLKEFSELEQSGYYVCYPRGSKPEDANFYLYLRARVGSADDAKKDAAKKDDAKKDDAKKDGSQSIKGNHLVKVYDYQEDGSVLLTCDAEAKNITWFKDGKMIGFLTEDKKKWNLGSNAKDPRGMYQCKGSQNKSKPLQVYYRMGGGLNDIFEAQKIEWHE

[11] = target: T8, biotinylated extracellular domains of human CD123 (uniprot ID 26951), Fc format (human, UniProt P26951 19-305, biotinylated); experiment: ribosome display selection, crude extract HTRF
T8 construct: extracellular domain
T8 sequence (looked up): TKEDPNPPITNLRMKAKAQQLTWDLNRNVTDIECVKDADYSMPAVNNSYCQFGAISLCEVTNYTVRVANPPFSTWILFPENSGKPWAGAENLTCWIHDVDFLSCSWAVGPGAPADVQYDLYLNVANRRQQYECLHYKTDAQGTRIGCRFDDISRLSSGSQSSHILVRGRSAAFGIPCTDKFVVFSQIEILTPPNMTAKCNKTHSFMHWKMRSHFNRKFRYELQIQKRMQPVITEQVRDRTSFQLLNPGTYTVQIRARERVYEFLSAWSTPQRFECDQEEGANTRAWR

[12] = target: T2, hCD123 (recombinant, construct not …); experiment: switchSENSE, hCD33 and hCD123 co-immobilised 2:1; panel headed CD123, column KD1; KD2 printed N.A.
Procedure: as §1

[13] = target: T1, hCD33 (recombinant, construct not …); experiment: switchSENSE, hCD33 and hCD123 co-immobilised 2:1; panel headed CD33
Procedure: as §1

[14] = target: T2, hCD123 (recombinant, construct not …); experiment: switchSENSE, CD33 and CD123 on one chip; monophasic
Procedure: as §1

T4 sequence (P20138 18-259 R69G): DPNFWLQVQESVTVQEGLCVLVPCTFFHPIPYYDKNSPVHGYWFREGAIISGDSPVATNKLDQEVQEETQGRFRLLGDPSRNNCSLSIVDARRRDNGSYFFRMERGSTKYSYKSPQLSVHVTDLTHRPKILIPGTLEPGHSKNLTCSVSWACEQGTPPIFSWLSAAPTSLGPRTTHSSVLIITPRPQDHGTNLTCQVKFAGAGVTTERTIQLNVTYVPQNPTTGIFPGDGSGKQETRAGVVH
T1 sequence (P20138 18-259 limits assumed): as the sequence (P20138 18-259 R69G) above, with G52R counted along it
T5 sequence (P02768 25-609 limits assumed): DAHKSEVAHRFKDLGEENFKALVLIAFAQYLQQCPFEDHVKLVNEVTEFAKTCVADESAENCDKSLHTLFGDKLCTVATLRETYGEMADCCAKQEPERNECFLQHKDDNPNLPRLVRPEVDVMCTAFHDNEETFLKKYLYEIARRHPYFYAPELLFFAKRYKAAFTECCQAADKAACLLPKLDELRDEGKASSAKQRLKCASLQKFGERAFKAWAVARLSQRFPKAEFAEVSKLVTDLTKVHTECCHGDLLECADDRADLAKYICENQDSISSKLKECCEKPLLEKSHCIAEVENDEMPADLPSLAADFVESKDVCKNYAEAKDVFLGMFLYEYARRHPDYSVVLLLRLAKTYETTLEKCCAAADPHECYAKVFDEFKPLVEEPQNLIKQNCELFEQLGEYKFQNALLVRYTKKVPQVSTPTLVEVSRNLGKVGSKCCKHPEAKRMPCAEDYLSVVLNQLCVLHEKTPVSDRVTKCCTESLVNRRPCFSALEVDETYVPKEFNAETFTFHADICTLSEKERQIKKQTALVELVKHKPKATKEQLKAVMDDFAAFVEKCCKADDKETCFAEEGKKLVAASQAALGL

B1: DARPin® protein #22 (designed binder)
chain: DLGKKLLEAARAGQDDEVRELLKAGADVNAKDKDGYTPLHLAAREGHLEIVEVLLKAGADVNAKDKDGYTPLHLAAREGHLEIVEVLLKAGADVNAQDKSGKTPADLAADAGHEDIAEVLQKAAGSPTPTPTTPTPTPTTPTPTPTGSDLGDKLLLAATSGQDDEVRILLAAGADVNAKDYDGDTPLHLAADEGHLEIVEVLLKAGADVNAKDYSGSTPLHAAAAYGHLEIVEVLLKAGADVNAQDVFGYTPADLAAYVGHEDIAEVLQKAAGSPTPTPTTPTPTPTTPTPTPTGSDLGQKLLEAAWAGQDDEVRILLAAGADVNAKNSRGWTPLHTAAQTGHLEIFEVLLKAGADVNAKNDKRVTPLHLAAALGHLEIVEVLLKAGADVNARDSWGTTPADLAAKYGHGDIAEVLQKLA
notes: also called Ni2C-αCD33-αCD3
Kd [1]: 15 nM
koff [2]: 0.01 s⁻¹
binding result [3]: no binding

B4: DARPin® protein #15 (designed binder)
chain: DLGDKLLLAATSGQDDEVRILLAAGADVNAKDYDGDTPLHLAADEGHLEIVEVLLKAGADVNAKDYSGSTPLHAAAAYGHLEIVEVLLKAGADVNAQDVFGYTPADLAAYVGHEDIAEVLQKAA
notes: CD33-specific domain; screened as crude extract of a His-tagged clone (vector pMPAG06)
binding result [9]: binds

B5: DARPin® protein #2 (designed binder)
chain: MRGSHHHHHHDLGQKLLEAAWAGQDDEVRELLKAGADVNAKNSRGWTPLHTAAQTGHLEIFEVLLKAGADVNAKDDKGVTPLHLAAALGHLEIVEVLLKAGADVNAQDSWGTTPADLAAKYGHEDIAEVLQKAA
notes: CD3-specific ankyrin repeat domain
binding result [10]: binds

B6: DARPin® protein #6 (designed binder)
chain: DLGKKLLEAARAGQDDEVRILMANGADVNALDWLGHTPLHLAAYEGHLEIVEVLLKNGADVNAIDDNNGFTPLHLAAIDGHLEIVEVLLKNGADVNAQDKFGKTAFDISIDNGNEDLAEILQKAA
notes: CD123-specific domain
binding result [11]: binds

B7: DARPin® protein #21 (designed binder)
chain: DLGKKLLEAARAGQDDEVRILMANGADVNALDWLGHTPLHLAAYEGHLEIVEVLLKNGADVNAIDDNNGFTPLHLAAIDGHLEIVEVLLKNGADVNAQDKFGKTAFDISIDNGNEDLAEILQKAAGSPTPTPTTPTPTPTTPTPTPTGSDLGKKLLEAARAGQDDEVRELLKAGADVNAKDKDGYTPLHLAAREGHLEIVEVLLKAGADVNAKDKDGYTPLHLAAREGHLEIVEVLLKAGADVNAQDKSGKTPADLAADAGHEDIAEVLQKAAGSPTPTPTTPTPTPTTPTPTPTGSDLGQKLLEAAWAGQDDEVRILLAAGADVNAKNSRGWTPLHTAAQTGHLEIFEVLLKAGADVNAKNDKRVTPLHLAAALGHLEIVEVLLKAGADVNARDSWGTTPADLAAKYGHGDIAEVLQKLA
notes: also called αCD123-Ni2C-αCD3
Kd [12]: 2.2 nM
binding result [13]: no binding
koff [14]: 0.06 s⁻¹

Further lines, with some results ahead:

Kd [6]: 8.6 nM
B2: DARPin® protein #34 (designed binder)
chain: DLGKKLLEAALEGQLDEVRELLKAGADVNAKDQEGYTPLHLAAALGHLEIVEVLLKAGADVNAKDSIGRTPLHLAAYKGHLEIVEVLLKAGADVNAQDLLGETPADLAAEQGHQDIAEVLQKAA
notes: CD123-specific ankyrin repeat domain; not shown: N-terminal His-tag
binding result [4]: no binding (tested: 100 nM (highest concentration))
binding result [5]: no binding (tested: 100 nM (highest concentration))
binding result (human serum albumin): no binding (tested: 100 nM (highest concentration))

Kd [8]: 0.18 nM
B3: DARPin® protein #33 (designed binder)
chain: DLGYKLLQAAYDGQLDEVRILLKAGADVNAKDSRGQTPLHYAASIGHLEIVEVLLKAGADVNAKDDHGWTPLHLAAWSGHLEIVEVLLKAGADVNAQDQEGTTPADLAAVQGHQDIAEVLQKAA
notes: CD70-specific ankyrin repeat domain; not shown: N-terminal His-tag
binding result [7]: no binding (tested: 100 nM (highest concentration))
binding result [5]: no binding (tested: 100 nM (highest concentration))
binding result (human serum albumin): no binding (tested: 100 nM (highest concentration))
